Test results from paper PMC6608616 (IUCrJ, 2019).

B1: Tryptophan synthase β subunit (TrpB) from Francisella tularensis (enzyme)
chain: MSKLNAYFGEYGGQFVPQILVPALDQLEQEFIKAQADESFKQEFKELLQEYAGRPTALTKTRNIVKNTRTKLYLKREDLLHGGAHKTNQVLGQALLAKRMGKKEIIAETGAGQHGVATALACALLDLKCRVYMGAKDVERQSPNVFRMKLMGAEVIPVHSGSATLKDACNEALRDWSANYSKAHYLLGTAAGPHPFPTIVREFQRMIGEETKQQMLAKEGRLPDAVIACVGGGSNAIGMFADFIDEKNVKLIGVEPAGKGIETGEHGAPLKHGKTGIFFGMKAPLMQNSDGQIEESYSISAGLDFPSVGPQHAHLLAIGRAKYASATDDEALDAFKLLCKKEGIIPALESSHALAHALKLAYEDPNKEQLLVVNLSGRGDKDIFTVHDILKEKGEI
notes: also called FtTrpB; β subunit of FtTrpAB

How the values were obtained:
[1] = biological target: the molecule itself; experiment: crystal structure
[2] = biological target: B1; experiment: crystal structure; conditions: both partners purified

B1: binds [1].

B2: Tryptophan synthase α subunit (TrpA) from Francisella tularensis (enzyme)
chain: SNAMTNRYTTLFANLEKRNEGAFIPFVTIGDPNKALSFEIIDTLVSSGADALELGIPFSDPLADGPTIQEANIRALESGITPKDCFDILTKIRAKYPHIPIGLLLYANLVYANGIENFYQKCLDAGVDSILIADVPAHESKEFRDIAKKVGIAQIFIAPPDASESTLKQISELGSGYTYLLSRVGVTGTETAANMPVEDVLTKLREYNAPKPVLGFGISKPEQVQQAIKAGAAGAISGSATVKIIQNNISNKQKMLNELTYFVKEMKAATLN
notes: also called FtTrpA; α subunit of FtTrpAB
B2: binds [2].
